The supplement of paper PMC5998384

How the values were obtained:
HeLa Kyoto [1] = assay: melting temperature (median over replicates), in situ; higher = more thermally stable
HeLa Kyoto [2] = assay: thermal stability score vs G1/S (z-score of summed log2 fold changes over temperatures); higher = more thermally stable than in G1/S
HeLa Kyoto [3] = assay: solubility change mitosis vs G1/S (difference of NP-40 vs SDS log2 ratios) (log2 ratio difference); higher = more soluble in mitosis
HeLa Kyoto [4] = assay: solubility in G1/S (NP-40 vs SDS abundance) (log2 ratio); higher = more soluble; conditions: cell cycle stage: G1/S
[5] = cell cycle stage: early G1 (4.5 h after nocodazole release)
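Throughout, for melting temperature (median over replicates), in situ: HeLa Kyoto cells synchronized by double thymidine or nocodazole block, proteins quantified by TMT10plex mass spectrometry, three independent biological replicates.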
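Throughout, for solubility change mitosis vs G1/S (difference of NP-40 vs SDS log2 ratios): synchronized HeLa Kyoto cells (double thymidine block for G1/S, nocodazole release for mitosis), protein amounts in NP-40 versus SDS lysates quantified by mass spectrometry, three biological replicates.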
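Throughout, for solubility in G1/S (NP-40 vs SDS abundance): HeLa Kyoto cells arrested at G1/S by double thymidine block, proteins quantified by TMT10plex mass spectrometry in mild NP-40 versus SDS extracts, three biological replicates.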
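Throughout, for thermal stability score vs G1/S (z-score of summed log2 fold changes over temperatures): synchronized HeLa Kyoto cells, proteins quantified by TMT10plex mass spectrometry, three biological replicates, mitosis taken 0.5 h after nocodazole release, G1/S directly after double thymidine block.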

Row | Sequence | melting temperature (HeLa Kyoto [1]; cell cycle stage: G1/S) | melting temperature (HeLa Kyoto [1]; cell cycle stage: mitosis) | thermal stability score (HeLa Kyoto [2]; [5]) | thermal stability score (HeLa Kyoto [2]; cell cycle stage: mitosis) | solubility change mitosis (log2) (HeLa Kyoto [3]) | solubility in G1/S (log2) (HeLa Kyoto [4])
1 | MIKKFDKKDEESGSGSNPFQHLEKSAVLQEARIFNETPINPRRCLHILTKILYLLNQGEHFGTTEATEAFFAMTRLFQSNDQTLRRMCYLTIKEMATISEDVIIVTSSLTKDMTGKEDVYRGPAIRALCRITDGTMLQAIERYMKQAIVDKVSSVSSSALVSSLHMMKISYDVVKRWINEAQEAASSDNIMVQYHALGVLYHLRKNDRLAVSKMLNKFTKSGLKSQFAYCMLIRIASRLLKETEDGHESPLFDFIESCLRNKHEMVIYEAASAIIHLPNCTARELAPAVSVLQLFCSSPKPALRYAAVRTLNKVAMKHPSAVTACNLDLENLITDSNRSIATLAITTLLKTGSESSVDRLMKQISSFVSEISDEFKVVVVQAISALCQKYPRKHSVMMTFLSNMLRDDGGFEYKRAIVDCIISIVEENPESKEAGLAHLCEFIEDCEHTVLATKILHLLGKEGPRTPVPSKYIRFIFNRVVLENEAVRAAAVSALAKFGAQNESLLPSILVLLQRCMMDTDDEVRDRATFYLNVLQQRQMALNATYIFNGLTVSVPGMEKALHQYTLEPSEKPFDMKSIPLAMAPVFEQKAEITLVATKPEKLAPSRQDIFQEQLAAIPEFLNIGPLFKSSEPVQLTEAETEYFVRCIKHMFTNHIVFQFDCTNTLNDQLLEKVTVQMEPSDSYEVLSCIPAPSLPYNQPGICYTLVRLPDDDPTAVAGSFSCTMKFTVRDCDPNTGVPDEDGYDDEYVLEDLEVTVSDHIQKVLKPNFAAAWEEVGDTFEKEETFALSSTKTLEEAVNNIITFLGMQPCERSDKVPENKNSHSLYLAGIFRGGYDLLVRSRLALADGVTMQVTVRSKERTPVDVILASVG [COPG2] | 52 °C | 51.8 °C | 0.652 | 0.0351 | -0.304 | -0.192
2 | MFSSVAHLARANPFNTPHLQLVHDGLGDLRSSSPGPTGQPRRPRNLAAAAVEEQYSCDYGSGRFFILCGLGGIISCGTTHTALVPLDLVKCRMQVDPQKYKGIFNGFSVTLKEDGVRGLAKGWAPTFLGYSMQGLCKFGFYEVFKVLYSNMLGEENTYLWRTSLYLAASASAEFFADIALAPMEAAKVRIQTQPGYANTLRDAAPKMYKEEGLKAFYKGVAPLWMRQIPYTMMKFACFERTVEALYKFVVPKPRSECSKPEQLVVTFVAGYIAGVFCAIVSHPADSVVSVLNKEKGSSASLVLKRLGFKGVWKGLFARIIMIGTLTALQWFIYDSVKVYFRLPRPPPPEMPESLKKKLGLTQ [SLC25A3] | 56.3 °C | 56 °C | -1.42 | -3.39 | -0.0903 | -0.0671
3 | MAQRGGARRPRGDRERLGSRLRALRPGREPRQSEPPAQRGPPPSGRPPARSTASGHDRPTRGAAAGARRPRMKKKTRRRSTRSEELTRSEELTLSEEATWSEEATQSEEATQGEEMNRSQEVTRDEESTRSEEVTREEMAAAGLTVTVTHSNEKHDLHVTSQQGSSEPVVQDLAQVVEEVIGVPQSFQKLIFKGKSLKEMETPLSALGIQDGCRVMLIGKKNSPQEEVELKKLKHLEKSVEKIADQLEELNKELTGIQQGFLPKDLQAEALCKLDRRVKATIEQFMKILEEIDTLILPENFKDSRLKRKGLVKKVQAFLAECDTVEQNICQETERLQSTNFALAE [BAG1] | 54.3 °C | 53.7 °C | 0.492 | -2.14 | 0.0327 | 0.0346
4 | MRVAAATAAAGAGPAMAVWTRATKAGLVELLLRERWVRVVAELSGESLSLTGDAAAAELEPALGPAAAAFNGLPNGGGAGDSLPGSPSRGLGPPSPPAPPRGPAGEAGASPPVRRVRVVKQEAGGLGISIKGGRENRMPILISKIFPGLAADQSRALRLGDAILSVNGTDLRQATHDQAVQALKRAGKEVLLEVKFIREVTPYIKKPSLVSDLPWEGAAPQSPSFSGSEDSGSPKHQNSTKDRKIIPLKMCFAARNLSMPDLENRLIELHSPDSRNTLILRCKDTATAHSWFVAIHTNIMALLPQVLAELNAMLGATSTAGGSKEVKHIAWLAEQAKLDGGRQQWRPVLMAVTEKDLLLYDCMPWTRDAWASPCHSYPLVATRLVHSGSGCRSPSLGSDLTFATRTGSRQGIEMHLFRVETHRDLSSWTRILVQGCHAAAELIKEVSLGCMLNGQEVRLTIHYENGFTISRENGGSSSILYRYPFERLKMSADDGIRNLYLDFGGPEGELTMDLHSCPKPIVFVLHTFLSAKVTRMGLLV [SNTB2] | 49.4 °C | 50.3 °C | 0.506 | 0.99 | 0.0092 | -0.0262
5 | MVPSRRTWNLGATPSLRGLWRVGRAPEPEPGMARPAPAPASPAARPFPHTGPGRLRTGRGKDTPVCGDEDSSARSAARPALAQCRALSVDWAGPGSPHGLYLTLQVEHLKEKLISQAQEVSRLRSELGGTDLEKHRDLLMVENERLRQEMRRCEAELQELRTKPAGPCPGCEHSQESAQLRDKLSQLQLEMAESKGMLSELNLEVQQKTDRLAEVELRLKDCLAEKAQEEERLSRRLRDSHETIASLRAQSPPVKYVIKTVEVESSKTKQALSESQARNQHLQEQVAMQRQVLKEMEQQLQSSHQLTARLRAQIAMYESELERAHGQMLEEMQSLEEDKNRAIEEAFARAQVEMKAVHENLAGVRTNLLTLQPALRTLTNDYNGLKRQVRGFPLLLQEALRSVKAEIGQAIEEVNSNNQELLRKYRRELQLRKKCHNELVRLKGNIRVIARVRPVTKEDGEGPEATNAVTFDADDDSIIHLLHKGKPVSFELDKVFSPQASQQDVFQEVQALVTSCIDGFNVCIFAYGQTGAGKTYTMEGTAENPGINQRALQLLFSEVQEKASDWEYTITVSAAEIYNEVLRDLLGKEPQEKLEIRLCPDGSGQLYVPGLTEFQVQSVDDINKVFEFGHTNRTTEFTNLNEHSSRSHALLIVTVRGVDCSTGLRTTGKLNLVDLAGSERVGKSGAEGSRLREAQHINKSLSALGDVIAALRSRQGHVPFRNSKLTYLLQDSLSGDSKTLMVVQVSPVEKNTSETLYSLKFAERVRSVELGPGLRRAELGSWSSQEHLEWEPACQTPQPSARAHSAPSSGTSSRPGSIRRKLQPSGKSRPLPV [KIFC3] | 49.1 °C | 47.3 °C | 0.116 | 0.946 | 0.169 | -0.0691
